Laboratory results: patent publication US20050095613

Legend:
DEVD peptide substrate = target: T1, DEVD peptide substrate
T1 chain: DEVD

DQMD peptide substrate = target: T2, DQMD peptide substrate
T2 chain: DQMD

LEHD peptide substrate = target: T3, LEHD peptide substrate
T3 chain: LEHD

WEHD peptide substrate = target: T4, WEHD peptide substrate
T4 chain: WEHD

B1: human CARD-13 (protein)
chain: MADKKPSKEDPVNMVKLLARNVLDGILDDLMENNVLNTEELRNLGKGLNFMVNNAGNLVDNITEKAQMAGKILKDRLLSHPKQLSLEYQRESEDQESEESSASSSSSTESEEENEESKDEERAASAHSMAVPPTGLPRWWQAASKMAADHFQDGGEPRVLCPGVPGLTDSKERNLGPCAPLEIQGAQPSGRLKLCPHAHFRELKTKRADEIYPVMEKEGRTRLALIICNKEFHYLLNRNGSELDLLGMQDLLETLGYSVVIEENLTAQEMETALRQFAARPEHQSSDSTSLVFMSHGILNGICGTKHWDQEPDVLHDDTIFEIFNNRNCRSLRDKPKVIIMQACRGSGAGIVWFTTDSGKASAETHGQLLQSSICNDAVTKAHVEKDFIAFKSSTPHNVSWRHEISGSVFISQIIYYFKEYSWSHHLEEIFRKVQRSFETPNVVTQLPTIERLSMTRYFYLFPGN
DEVD peptide substrate
  cleavage of peptide substrate (caspase activity): it did not cleave DEVD peptide substrate or DQMD peptide substrate
DQMD peptide substrate
  cleavage of peptide substrate (caspase activity): it did not cleave DEVD peptide substrate or DQMD peptide substrate
LEHD peptide substrate
  cleavage of peptide substrate (caspase activity): It also had some activity against LEHD peptide substrate
WEHD peptide substrate
  cleavage of peptide substrate (caspase activity): This purified CARD-13 cleaved WEHD peptide substrates, as does caspase-1
